Experimental data published in patent US20250154277A1 (CONCEPT TO MEDICINE BIOTECH, published 2025).
Several values for one entry are separate records, joined by “and”; a condition that tells them apart may be missing. Equal values may be shown once. Read-outs that look alike come from different tables or passages of the source.

Legend:
human 5T4-His protein [1] = molecular target: T1, human 5T4-His protein (human, UniProt Q13641 32-355); assay: ELISA, coated antigen
T1 construct: also called recombinant 5T4 protein (human 5T4-his tag); human 5T4 protein; not shown: His tag
T1 sequence (looked up): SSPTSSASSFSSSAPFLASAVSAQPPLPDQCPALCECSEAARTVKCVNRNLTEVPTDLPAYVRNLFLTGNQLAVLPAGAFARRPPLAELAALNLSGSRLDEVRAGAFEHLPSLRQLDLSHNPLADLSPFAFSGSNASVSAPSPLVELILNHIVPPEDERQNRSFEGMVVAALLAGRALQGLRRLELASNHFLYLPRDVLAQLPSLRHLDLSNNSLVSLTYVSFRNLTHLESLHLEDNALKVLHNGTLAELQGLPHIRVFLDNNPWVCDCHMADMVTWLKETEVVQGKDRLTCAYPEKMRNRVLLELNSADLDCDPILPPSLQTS

cynomolgus 5T4 protein = molecular target: T2, cynomolgus 5T4 protein (cynomolgus monkey, UniProt Q4R8Y9 35-355, limits assumed); assay: ELISA, coated antigen
T2 construct: Coated protein in ELISA; the screening step names a cyno 5T4-His protein; also called cyno 5T4; recombinant cyno 5T4-His protein
T2 sequence (looked up): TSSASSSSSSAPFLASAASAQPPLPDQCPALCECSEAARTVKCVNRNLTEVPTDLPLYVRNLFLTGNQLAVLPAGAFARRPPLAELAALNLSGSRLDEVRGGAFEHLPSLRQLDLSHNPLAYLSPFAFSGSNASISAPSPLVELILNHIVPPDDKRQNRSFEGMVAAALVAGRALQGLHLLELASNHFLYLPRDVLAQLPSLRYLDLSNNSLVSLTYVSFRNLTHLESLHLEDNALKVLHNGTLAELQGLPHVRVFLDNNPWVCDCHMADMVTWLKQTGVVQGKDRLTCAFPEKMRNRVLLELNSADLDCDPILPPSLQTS

human 5T4-His protein [2] = molecular target: T1, human 5T4-His protein; assay: ELISA, coated 5T4-His
Procedure: To evaluate the binding activity of 159D5 humanized antibodies to human 5T4, the 159D5 chimeric antibody along with 159D5 humanized mAbs were subjected to ELISA test.
Briefly, microtiter plates were coated with human 5T4-His protein at 1 μg/ml in PBS, 100 μl/well at 4° C. overnight, then blocked with 150 μl/well of 10% BSA. Serial dilutions of antibodies were added to each well and incubated for 1 hour at 37° C. The plates were washed with PBS/Tween and then incubated with Goat Anti-Human IgG-HRP for 30 mins at 37° C. After washing, the plates were developed with TMB substrate and analyzed by spectrophotometer at OD 450 nm. As shown in FIG. 14 and Table 12, most of the humanized antibodies bound to human 5T4 with high activity.

human 5T4-His protein [3] = molecular target: T1, human 5T4-His protein; assay: SPR Biacore, Protein A capture
Summary of the method: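 Antibodies captured on a Protein A chip on Biacore T200; serial dilutions of His-tagged human 5T4 injected 2-3 min at 30 μl/min, dissociation 360-1000 s.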

human 5T4-His protein [4] = molecular target: T1, human 5T4-His protein; assay: SPR Biacore, Protein A capture, 50 nM 5T4-His
Procedure: The binding of the 159D5 humanized antibodies to recombinant 5T4 protein (human 5T4-his tag) was tested with Biacore using a capture method. The mAbs were captured using Protein A chip. 50 nM of human 5T4-his tag protein was injected over captured antibody for 3 mins at a flow rate of 30 μl/min. The antigen was allowed to dissociate for 600 s. All the experiments were carried out on a Biacore T200. Data analysis was carried out using the Biacore T200 evaluation software.

human 5T4-His protein [5] = molecular target: T1, human 5T4-His protein; assay: competitive ELISA, coated human 5T4, vs 159D5-biotin
human 5T4-His protein [6] = molecular target: T1, human 5T4-His protein; assay: as above; remark: listed apart in the source
human 5T4-His protein [7] = molecular target: T1, human 5T4-His protein; assay: as above; remark: listed apart in the source

B1: 159D5 chimeric antibody (antibody, V domains shown)
VH: DVQLVESGGGLVQPGGSRKLSCTASGFTFSNFGMHWVRQAPETGLEWVAYISSGSSTFYYADSVKGRFTISRDNPKNTLFLQMTSLRSEDTAMYFCARSPAYYRYGLDYWGQGTTLTVSS
VL: DIVLTQSPASLAVSLGQRATISCRASQSVSSSTFSYMHWYQQKPGQPPKLLIKSSSNLESGVPARFSGSGSGTDFTLNIHPVEEEDTATYYCQHSWEIPYTFGGGTKLEIK
notes: chimeric mAb
- EC50 (human 5T4-His protein [1]): 0.24 nM and 0.2 nM and 0.39 nM
- EC50 (cynomolgus 5T4 protein): 0.18 nM and 0.19 nM and 0.2 nM and 0.11 nM
- EC50 (human 5T4-His protein [2]): 0.13 nM
- Kd (human 5T4-His protein [3]): 0.206 nM
- koff (human 5T4-His protein [3]): 0.00024 s⁻¹
- kon (human 5T4-His protein [3]): 1.16e+06 M⁻¹ s⁻¹
- Kd (human 5T4-His protein [4]): 0.618 nM
- koff (human 5T4-His protein [4]): 0.000204 s⁻¹
- kon (human 5T4-His protein [4]): 330000 M⁻¹ s⁻¹
- IC50 (read off the curve) (human 5T4-His protein [5]): ~5 nM
- IC50 (read off the curve) (human 5T4-His protein [6]): ~5 nM
- IC50 (read off the curve) (human 5T4-His protein [7]): ~4 nM
